In patent US20110275102:
Several values for one entry are separate records, joined by “and”; a condition that tells them apart may be missing. Identical values can stand only once.

What was measured:
Crosstide GRPRTSSFAEG = system: T1, Crosstide GRPRTSSFAEG
T1 sequence: GRPRTSSFAEG

GRARTSSFA = system: T2, GRARTSSFA
T2 sequence: GRARTSSFA

GRPRTSSF = system: T3, GRPRTSSF
T3 sequence: GRPRTSSF

KKKNRTLSVA = system: T4, KKKNRTLSVA
T4 sequence: KKKNRTLSVA

KKRNKTLSVA = system: T5, KKRNKTLSVA
T5 sequence: KKRNKTLSVA

KKRNRTLSVA = system: T6, KKRNRTLSVA
T6 sequence: KKRNRTLSVA

KKRNRTLTV = system: T7, KKRNRTLTV
T7 sequence: KKRNRTLTV

KPRTSSF = system: T8, KPRTSSF
T8 sequence: KPRTSSF

RPKTSSF = system: T9, RPKTSSF
T9 sequence: RPKTSSF

RPRAASF = system: T10, RPRAASF
T10 sequence: RPRAASF

RPRAATF = system: T11, RPRAATF
T11 sequence: RPRAATF

RPRAGSF = system: T12, RPRAGSF
T12 sequence: RPRAGSF

RPRASSF = system: T13, RPRASSF
T13 sequence: RPRASSF

RPRGASF = system: T14, RPRGASF
T14 sequence: RPRGASF

RPRGGSF = system: T15, RPRGGSF
T15 sequence: RPRGGSF

RPRGSSF = system: T16, RPRGSSF
T16 sequence: RPRGSSF

RPRNSSF = system: T17, RPRNSSF
T17 sequence: RPRNSSF

RPRTASF = system: T18, RPRTASF
T18 sequence: RPRTASF

RPRTGSF = system: T19, RPRTGSF
T19 sequence: RPRTGSF

RPRTNSF = system: T20, RPRTNSF
T20 sequence: RPRTNSF

RPRTSSA = system: T21, RPRTSSA
T21 sequence: RPRTSSA

RPRTSSE = system: T22, RPRTSSE
T22 sequence: RPRTSSE

RPRTSSFA = system: T23, RPRTSSFA
T23 sequence: RPRTSSFA

RPRTSSF = system: T24, RPRTSSF
T24 sequence: RPRTSSF

RPRTSSK = system: T25, RPRTSSK
T25 sequence: RPRTSSK

RPRTSSL = system: T26, RPRTSSL
T26 sequence: RPRTSSL

RPRTSSV = system: T27, RPRTSSV
T27 sequence: RPRTSSV

RPRTSS = system: T28, RPRTSS
T28 sequence: RPRTSS

RPRTSTF = system: T29, RPRTSTF
T29 sequence: RPRTSTF

RPRTVSF = system: T30, RPRTVSF
T30 sequence: RPRTVSF

RPRVSSF = system: T31, RPRVSSF
T31 sequence: RPRVSSF

[1] = system: myelin basic protein (MBP)

“HA-RAC-PKα immunoprecipitated from IGF-1 stimulated 293 cells” gave a Km (Crosstide GRPRTSSFAEG) of 4 µM, a V (0.1 mM): relative rate of phosphorylation at 0.1 mM peptide (relative to peptide 1) (Crosstide GRPRTSSFAEG) of 100 and a Vmax (Crosstide GRPRTSSFAEG) of 250 U/mg. The Km (GRARTSSFA) was “Km of 10 µM and Vmax of 230 U/mg”, the Vmax (GRARTSSFA) was “Km of 10 µM and Vmax of 230 U/mg” and the Km (GRPRTSSF) was 8 µM. For the same substance, the V (0.1 mM): relative rate of phosphorylation at 0.1 mM peptide (relative to peptide 1) (GRPRTSSF) was 129, the Vmax (GRPRTSSF) was 385 U/mg and the Km (KKKNRTLSVA) was 185 µM. For the same substance, the Vmax (KKKNRTLSVA) was 270 U/mg, the Km (KKRNKTLSVA) was greater than 500 µM and the Km (KKRNRTLSVA) was 80 µM. For the same substance, the Vmax (KKRNRTLSVA) was 300 U/mg, the Km (KKRNRTLTV) was 388 µM and the Vmax (KKRNRTLTV) was 330 U/mg. The Km (KPRTSSF) was greater than 500 µM, the V (0.1 mM): relative rate of phosphorylation at 0.1 mM peptide (relative to peptide 1) (KPRTSSF) was 4 and the Km (RPKTSSF) was greater than 500 µM. It also gave a V (0.1 mM): relative rate of phosphorylation at 0.1 mM peptide (relative to peptide 1) (RPKTSSF) of 2, a Km (RPRAASF) of 25 µM and a V (0.1 mM): relative rate of phosphorylation at 0.1 mM peptide (relative to peptide 1) (RPRAASF) of 77. The Vmax (RPRAASF) was 215 U/mg, the Km (RPRAATF) was 25 µM and the Vmax (RPRAATF) was 230 U/mg. For the same substance, the Km (RPRAGSF) was 49 µM, the V (0.1 mM): relative rate of phosphorylation at 0.1 mM peptide (relative to peptide 1) (RPRAGSF) was 70 and the Vmax (RPRAGSF) was 114 U/mg. For the same substance, the Km (RPRASSF) was 12 µM, the V (0.1 mM): relative rate of phosphorylation at 0.1 mM peptide (relative to peptide 1) (RPRASSF) was 89 and the Vmax (RPRASSF) was 230 U/mg. It also gave a Km (RPRGASF) of 105 µM, a V (0.1 mM): relative rate of phosphorylation at 0.1 mM peptide (relative to peptide 1) (RPRGASF) of 37 and a Vmax (RPRGASF) of 160 U/mg. The Km (RPRGGSF) was 105 µM, the V (0.1 mM): relative rate of phosphorylation at 0.1 mM peptide (relative to peptide 1) (RPRGGSF) was 55 and the Vmax (RPRGGSF) was 345 U/mg. It also gave a Km (RPRGSSF) of 60 µM, a V (0.1 mM): relative rate of phosphorylation at 0.1 mM peptide (relative to peptide 1) (RPRGSSF) of 37 and a Vmax (RPRGSSF) of 163 U/mg. The Km (RPRNSSF) was greater than 500 µM, the V (0.1 mM): relative rate of phosphorylation at 0.1 mM peptide (relative to peptide 1) (RPRNSSF) was 21 and the Km (RPRTASF) was 20 µM. For the same substance, the V (0.1 mM): relative rate of phosphorylation at 0.1 mM peptide (relative to peptide 1) (RPRTASF) was 83, the Vmax (RPRTASF) was 213 U/mg and the Km (RPRTGSF) was 25 µM. The V (0.1 mM): relative rate of phosphorylation at 0.1 mM peptide (relative to peptide 1) (RPRTGSF) was 77, the Vmax (RPRTGSF) was 233 U/mg and the Km (RPRTNSF) was 30 µM. For the same substance, the V (0.1 mM): relative rate of phosphorylation at 0.1 mM peptide (relative to peptide 1) (RPRTNSF) was 81, the Vmax (RPRTNSF) was 300 U/mg and the Km (RPRTSSA) was 250 µM. It also gave a V (0.1 mM): relative rate of phosphorylation at 0.1 mM peptide (relative to peptide 1) (RPRTSSA) of 30, a Vmax (RPRTSSA) of 265 U/mg and a Km (RPRTSSE) greater than 500 µM. For the same substance, the V (0.1 mM): relative rate of phosphorylation at 0.1 mM peptide (relative to peptide 1) (RPRTSSE) was 9, the Km (RPRTSSFA) was 8 µM and the V (0.1 mM): relative rate of phosphorylation at 0.1 mM peptide (relative to peptide 1) (RPRTSSFA) was 109. For the same substance, the Vmax (RPRTSSFA) was 305 U/mg, the Km (RPRTSSF) was 5 µM and the V (0.1 mM): relative rate of phosphorylation at 0.1 mM peptide (relative to peptide 1) (RPRTSSF) was 105. The Vmax (RPRTSSF) was 260 U/mg, the Km (RPRTSSK) was 80 µM and the V (0.1 mM): relative rate of phosphorylation at 0.1 mM peptide (relative to peptide 1) (RPRTSSK) was 67. The Vmax (RPRTSSK) was 308 U/mg, the Km (RPRTSSL) was 8 µM and the V (0.1 mM): relative rate of phosphorylation at 0.1 mM peptide (relative to peptide 1) (RPRTSSL) was 104. The Vmax (RPRTSSL) was 278 U/mg, the Km (RPRTSSV) was 21 µM and the V (0.1 mM): relative rate of phosphorylation at 0.1 mM peptide (relative to peptide 1) (RPRTSSV) was 102. It also gave a Vmax (RPRTSSV) of 300 U/mg, a Km (RPRTSS) greater than 500 µM and a V (0.1 mM): relative rate of phosphorylation at 0.1 mM peptide (relative to peptide 1) (RPRTSS) of 2. For the same substance, the Km (RPRTSTF) was 30 µM, the V (0.1 mM): relative rate of phosphorylation at 0.1 mM peptide (relative to peptide 1) (RPRTSTF) was 78 and the Vmax (RPRTSTF) was 240 U/mg and 243 U/mg. It also gave a Km (RPRTVSF) of 30 µM, a V (0.1 mM): relative rate of phosphorylation at 0.1 mM peptide (relative to peptide 1) (RPRTVSF) of 89 and a Vmax (RPRTVSF) of 365 U/mg. It also gave a Km (RPRVSSF) of 25 µM, a V (0.1 mM): relative rate of phosphorylation at 0.1 mM peptide (relative to peptide 1) (RPRVSSF) of 77 and a Vmax (RPRVSSF) of 273 U/mg. The Km (histone H2B) was “histone H2B with a Km of 5 µM and a Vmax of 68 U/mg”, the Vmax (histone H2B) was “histone H2B with a Km of 5 µM and a Vmax of 68 U/mg” and the Km [1] was “MBP with a Km of 5 µM and a Vmax of 25 U/mg”. For the same substance, the Vmax [1] was “MBP with a Km of 5 µM and a Vmax of 25 U/mg”.

“MAPKAP kinase-1 purified from rabbit skeletal muscle” gave a Km (Crosstide GRPRTSSFAEG) of 2 µM, a Vmax (Crosstide GRPRTSSFAEG) of 790 U/mg and a Km (RPRAASF) of 20 µM. For the same substance, the Vmax (RPRAASF) was 1020 U/mg, the Km (RPRAATF) was greater than 500 µM and the Km (RPRTSSF) was 12 µM. It also gave a Vmax (RPRTSSF) of 840 U/mg, a Km (RPRTSTF) greater than 500 µM and a Vmax (RPRTSTF) greater than 500 U/mg.
